{"source": "patent US20260234267A1", "about": "(KAIGENE, published 2026)", "binders": {"B1": {"name": "VH2/VL6 humanized anti-CD11b antibody (antibody, human IgG4 S228P, kappa, V domains shown)", "VH": "QVQLVQSGAEVKKPGSSVKVSCKASGYAFINYLIEWVKQAPGQGLEWIGVINPGSGGTNYNEKFKGRATLTADKSTSTAYMELSSLRSEDTAVYFCARGDDYDDYTMDYWGQGTLVTVSS", "VL": "EIVLTQSPATLSLSPGERATLSCRASQSISNNLHWYQQKPGQAPRLLIKYASQSESGIPSRFSGSGSGTDFTLTISSLEPEDFGMYFCQQSNSWPLTFGQGTKLEIKR", "notes": "Lead candidate; IgG4 with S241P and L248E; also called VH2 with VL6"}, "B2": {"name": "VH4/VL2 humanized anti-CD11b antibody (antibody, V domains shown)", "VH": "B1 VH with A68V, L70I, F95Y", "VL": "DIVLTQSPATLSLSPGERATLSCRASQSISNNLHWYQQKPGQAPRLLIKYASQSMSGIPSRFSGSGSGTDFTLTISSLEPEDFGMYFCQQSNSWPLTFGQGTKLEIK", "notes": "Member of the group 'the variants with VH4 or VH5'; One of the 30 humanized variants"}, "B3": {"name": "VH2/VL3 humanized anti-CD11b antibody (antibody, human IgG4 S228P, kappa)", "heavy": "not shown", "light": "EIVLTQSPATLSLSPGERATLSCRASQSISNNLHWYQQKPGQAPRLLIKYASQSMSGIPSRFSGSGSGTDFTLTISSLEPEDFGMYFCQQSNSWPLTFGQGTKLEIKRTVAAPSVFIFPPSDEQLKSGTASVVCLLNNFYPREAKVQWKVDNALQSGNSQESVTEQDSKDSTYSLSSTLTLSKADYEKHKVYACEVTHQGLSSPVTKSFNRGEC", "notes": "Lead candidate; IgG4 with S241P and L248E; also called VH2 with VL3"}, "B4": {"name": "VH2/VL2 humanized anti-CD11b antibody (antibody, human IgG4 S228P, kappa)", "heavy": "not shown", "light": "B3 light with E1D", "notes": "Lead candidate; IgG4 with S241P and L248E; also called VH2 with VL2"}, "B5": {"name": "VH4/VL3 humanized anti-CD11b antibody (antibody, V domains shown)", "VH": "B1 VH with A68V, L70I, F95Y", "VL": "B2 VL with D1E", "notes": "as for B2"}, "B6": {"name": "VH1/VL6 humanized anti-CD11b antibody (antibody, human IgG4 S228P, kappa, V domains shown)", "VH": "B1 VH with V5Q, V11L, K13R, R67K, T76S, E89D, T91S, L115S", "VL": "B1 VL", "notes": "Lead candidate; IgG4 with S241P and L248E; also called VH1 with VL6"}, "B7": {"name": "VH4/VL6 humanized anti-CD11b antibody (antibody, human IgG4 S228P, kappa, V domains shown)", "VH": "B1 VH with A68V, L70I, F95Y", "VL": "B1 VL", "notes": "Lead candidate; IgG4 with S241P and L248E; also called VH4 with VL6"}}, "note": "Changes are numbered by the printed parent chain. Names and notes keep the numbering of the source."}
{"target": "Mac-1 (CD11b/CD18 integrin) on polymorphonuclear leukocytes (PMNs) of healthy human donors (human, UniProt P11215 17-1152; P05107 23-769)", "experiment": "flow cytometry, 30 µg/mL antibody on untreated versus PMA-treated human WBCs, % CD11b+ cells of live PMNs", "protocol": "FIG. 3 is a chart showing the results of a flow cytometry analysis of activated polymorphonuclear leukocytes (“PMNs”) stained using 30 humanized anti-CD11b constructs prepared according to the present disclosure. The percentages of CD11b+ cells in live PMN were calculated by a gating based on a control, which is the cells stained with human IgG4 isotype, and are presented as means S.E.M. from four independent experiments. The white bars are CD11b+ cells in untreated white blood cells (WBCs), while the black bars are CD11b+ cells in PMA-treated WBCs.\nThe baseline CBRM1/5 antibody can distinguish between non-activated (resting) and activated form of Mac-1. In order to validate that humanized variants retained this characteristic, WBCs were isolated from 4 healthy human donors and activated in the absence or presence of phorbol 12-myristate-13-acetate (PMA). The cells were then stained with 30 μg/mL of each of the 30 humanized variants along with control antibody (human IgG4 isotype) and analyzed using flow cytometry. The percentages of CD11b+ cells in live PMNs were calculated by a gating based on a control, which is the cells stained with human IgG4 isotype, and are presented as means S.E.M. from four independent experiments. Variants containing VL5 lost a binding to Mac-1 in polymorphonuclear leukocytes (PMNs) regardless of the pairings with any VH variant (FIGS. 3-4). […] However, VH1/VL6 and all variants with VH2 preserved the characteristic of CBRM1/5 that can distinguish between non-activated (resting) and activated form of Mac-1, while the variants with VH4 or VH5 were likely to lose the specificity of the parental antibody, CBRM1/5 (FIGS. 3-4)."}
{"binder": "B1", "binding result": "binds"}
{"binder": "B2", "binding result": "binds"}
{"binder": "B3", "binding result": "binds"}
{"binder": "B4", "binding result": "binds"}
{"binder": "B5", "binding result": "binds"}
{"binder": "B6", "binding result": "binds"}
{"binder": "B7", "binding result": "binds"}
